# Test results reported in PMC7809799, “A microtubule‐LUZP1 association around tight junction promotes epithelial cell apical constriction” (The EMBO Journal, 2020).
# Tests used:
# Flag‐LUZP1 (mouse) = Flag‐LUZP1 (mouse) (UniProt Q8R4U7); assay: pull-down; in vitro direct binding assay: Flag‐LUZP1 on anti‐Flag M2 affinity gel beads, GST‐MLC 0–8.0 μM in HBS, RT 60 min; washed in 300 mM NaCl, 50 mM Tris–HCl pH 7.5, 1 mM EDTA, 1 mM DTT; immunoblot densitometry, Michaelis–Menten fit
# [1] = biological target: Taxol‐stabilized microtubules (tubulin, Cytoskeleton Inc. #T240) (UniProt P02550); assay: co-sedimentation; MT co‐sedimentation: Flag‐LUZP1 (10 μl of 7.7 nM in 20 μl) with 0–6 μM polymerized tubulin, GTP and Taxol, PME buffer/HBS, RT 60 min; 434,513 g, 25°C, 20 min; immunoblot densitometry, Michaelis–Menten fit
# HA‐PP1c β/δ = HA‐PP1c β/δ (UniProt P62141 1-327); assay: cell-based or functional assay
Molecule,Kd (Flag‐LUZP1 (mouse)) [µM],Kd [1] [nM],"in vitro MLC phosphorylation assay with 1 μg MTs added (25 ng GST‐MLC, 4 ng GST‐ROCK1 catalytic domain, 1 μg GST‐PP1c β/δ, 0–5 μg GST‐LUZP1): ppMLC/MLC ratio relative to the control (HA‐PP1c β/δ)","in vitro Merlin phosphorylation assay with 1 μg MTs added (100 ng GST‐Merlin, 2 pg PAK1, 1 μg GST‐PP1c β/δ, 0–5 μg GST‐LUZP1): pMerlin/Merlin ratio relative to the control (HA‐PP1c β/δ)"
"GST‐tagged di‐dephosphomimetic myosin light chain (T18A, S19A) (natural protein)",4.88,–,–,–
GST‐tagged wild‐type myosin light chain (from UniProt Q3THE2 1-172) (natural protein),4.04,–,–,–

# Second part, the molecule after the results:
Kd (Flag‐LUZP1 (mouse)) [µM],Kd [1] [nM],"in vitro MLC phosphorylation assay with 1 μg MTs added (25 ng GST‐MLC, 4 ng GST‐ROCK1 catalytic domain, 1 μg GST‐PP1c β/δ, 0–5 μg GST‐LUZP1): ppMLC/MLC ratio relative to the control (HA‐PP1c β/δ)","in vitro Merlin phosphorylation assay with 1 μg MTs added (100 ng GST‐Merlin, 2 pg PAK1, 1 μg GST‐PP1c β/δ, 0–5 μg GST‐LUZP1): pMerlin/Merlin ratio relative to the control (HA‐PP1c β/δ)",Molecule
0.85,–,–,–,"GST‐tagged di‐phosphomimetic myosin light chain (T18D, S19D) (natural protein)"
–,780,2.87 ratio relative to the control,8.32 ratio relative to the control,"GFP‐LUZP1 (natural protein, mouse, UniProt Q8R4U7 1-1068, looked up) MAELTNYKDAASNRHLRFKLQSLSRRLDELEEATKNLQRAEDELLDLQDKVIQAEGSDSSTLAEIEVLRQRVLKIEGKDEEIKRAEDLCHTMKEKLEEEENLTRELKSEIERLQKRMVDLEKLEEALSRSKNECSQLCLSLNEERNLTKKISSELEMLRVKVKELESSEDRLDKTEQSLVSELEKLKSLTLSFVNERKYLNEKEKENEKIIKELTQKLEQNKKMNRDHMRNASTFLERNDLRIEDGISSTLSSKESKRKGSLDYLKQVENETRDKSENEKNRNQEDNKVKDLNQEIEKLKTQIKHFESLEEELKKMRAKNNDLQDNYLTELNRNRSLASQLEEIKLQVRKQKELGNGDIEGEDAFLLGRGRHERTKLKGHGSEASVSKHTSRELSPQHKRERLRNREFALSNEHYSLSSKQASSPVFTNKRAAKASNMGMGTDSGTQETKRTEDRFAPGSSHSEGKRGREQPSVLSRYPPAAQEHTKVWKGAPKPGTESGLKGKVEKTTRTFSDSTHVSVPNDIVGKGDKTSDLSSEAHCGKRGQVPGHASQGTQAVESSCSKAIGALSSSQKASSEGLSKGKKTANGLAADANFSNSKAPILSKYPYSSRSQENILQGFSLPNKEGVDQPVAVVMEDSSQHEALRCRVIKSSGREKPDSDDDLDIESFVTAKLVNTTITPEPEPKPQPNSREKVKSRGGTRTALFENDKNAAIENDSVKPTRPSSNAIEFPDANCAGVKNQRPFSPREALRSRAIIKPVIIDKDVKKIMGGSGTEVVLEKQKSTSKSVTSKVTSSITIYPSDSSGPRAVPSEAPRERHTSTSNIQVGPPELTAISNHVSSPLELSIHKHDITLQLTEAERVGDGSPKNRAEMVVSRSSILIKPSESVEKNSHVPPAETIRWKSHSASSDSRHITVRNAWKSKRDLKCSEDPPTGIGRNMEATNAYTQRPCTDFLELEQPRSQPSEQGARRVGNSGDAPELSPRRTQSSLTASEVLTRRDRMGGAITAASCNHSSSMEEGEDSTFVTSRRIHNPLEHSELPGKQGLPEPEPVWTEERLHPAKPYAEED"
